B1: SAM and SH3 domain-containing protein 1, residues 630 to 700; numbered along this chain, O94885 (parent)
chain: GRPPQPKSVEDLLDRINLKEHMPTFLFNGYEDLDTFKLLEEEDLDELNIRDPEHRAVLLTAVELLQEYDSN

Variants of: B1
Experiment: abundance fitness (aPCA) (normalised: wild type 0, dead -1); higher = more abundant; growth selection in yeast, the domain comes from the species named
Conditions: Homo sapiens

Abundance fitness of substitutions, site by site:
R2: V -0.472 | S -0.446 | T -0.239 | Y -0.317 | W -0.643 | Q -0.412 | P -0.632
D11: Q -0.319 | E 0.148 | P -0.92 | L -0.9 | N -0.605 | G -0.649 | Y -0.717 | T -0.818 | C -0.795 | A -0.607 | K -0.766 | I -1.08 | M -0.97 | W -0.793 | F -0.925 | H -0.78 | S -0.749 | V -0.852 | R -0.926
N17: R -0.645 | T -0.842 | Q -0.289 | A -0.349 | D -0.234 | K -0.341 | L -0.891 | E -0.333 | W -0.956 | V -0.817 | P -1.08 | Y -0.904 | S -0.279 | H -0.2 | C -0.486 | I -0.851 | F -0.726
V9: G -0.868 | K -0.701 | C -0.892 | A -0.844 | Y -0.883 | E -0.876 | R -0.969 | M -0.52 | P -0.632 | T -0.701 | D -0.736 | W -1.05 | L 0.032 | I -0.235 | H -0.909 | Q -0.796
K19: G -0.236 | W -0.607 | S 0.085 | V -0.293 | N -0.211 | T 0.042 | M -0.058 | R -0.032 | Q 0.002 | Y -0.532 | P -0.279 | L 0.127 | H -0.262 | E -0.434 | D -0.643 | I -0.073 | C -0.419 | A -0.055 | F -0.654
E10: M -0.398 | A -0.145 | K -0.407 | I -0.446 | P -0.357 | Y -0.418 | Q -0.445 | F -0.443 | W -0.511 | N -0.53 | C -0.463 | L -0.532 | G -0.434 | T -0.559 | V -0.413 | S -0.423
M22: G -0.346 | C -0.135 | D -0.749 | I 0.131 | F 0.081 | E -0.213 | H -0.313
Q5: T -0.365 | E -0.481 | F 0.068 | S -0.334 | D -0.783 | H -0.033 | P -0.276 | N -0.113 | M -0.033 | A -0.291 | R -0.25 | V -0.149 | K -0.258 | C 0.007 | I -0.02 | L -0.345 | Y 0.202 | G -0.694
E20: Y -0.84 | V -0.203 | K -0.755 | A -0.699 | H -0.484 | L -0.559 | W -0.879 | N -0.455 | M -0.212 | C -0.124 | S -0.332 | F -0.502 | R -0.596 | G -0.673 | I -0.244 | T -0.48 | D -0.498
D14: C -0.215 | I -0.293 | G -0.218 | M -0.34 | N -0.131 | P -0.834 | Y -0.602 | S -0.168 | V -0.287 | T -0.086 | F -0.734 | K -0.273 | Q -0.269 | R -0.434
P3: F 0.044 | W -0.132 | N -0.038 | Q -0.118 | C -0.073 | E 0.04 | V 0.035 | Y 0.005 | M 0.008 | I 0.035 | H -0.094 | A -0.115 | K -0.279 | T -0.014 | R -0.302 | D 0.2 | L -0.036
P4: N 0.09 | Q 0.159 | Y 0.067 | E 0.237 | C -0.088 | W -0.008 | R -0.198 | D 0.343 | S -0.03 | T 0.101 | F 0.2 | H -0.01 | M 0.078 | A 0.046 | I 0.058
P6: L -0.434 | G -0.655 | T -0.653 | E -0.481 | Y 0.128 | D -0.158 | W -0.092 | Q -0.726 | I -0.151 | N -0.792 | H -0.607 | F 0.085 | V -0.168 | K -0.63 | A -0.421 | M -0.264 | C -0.507 | S -0.533
L12: P -0.916 | K -0.99 | D -0.784 | I -0.328 | A -0.846 | Q -0.679 | C -0.654 | S -0.75 | V -0.464 | T -0.829 | Y -0.672 | N -0.794 | E -0.768 | H -0.924
K7: C -0.533 | Q -0.119 | W -0.873 | D -0.213 | A -0.066 | S -0.097 | P -0.679 | I -0.086 | E -0.002 | L -0.323 | H -0.308 | T 0.095 | V -0.126 | M -0.309 | F -0.5 | N -0.142
H21: M -0.085 | N -0.689 | D -0.889 | V -0.607 | E -0.689 | A -0.85 | S -0.785 | F -0.134 | I -0.459 | K -0.712 | T -0.685 | C -0.536 | P -0.798 | R -0.921 | W -0.248
I16: Y -0.009 | V -0.199 | G -0.674 | H -0.278 | P -0.994 | T -0.589 | W -0.611 | K -0.735 | F -0.266 | D -0.703 | M -0.325 | C -0.067 | N -0.326 | Q -0.682 | E -0.595 | A -0.424 | L 0.128
R15: K -0.036 | Q -0.017 | H -0.342 | Y -0.3 | M 0.142 | N -0.075 | A 0.055 | V -0.381 | E -0.07 | S 0.116 | I -0.23 | F -0.286 | D -0.454 | L -0.223 | G -0.342 | P -0.828 | C -0.374 | W -0.411 | T -0.164
L18: P -0.996 | I -0.716 | E -0.797 | M 0.158 | V -0.742 | W -0.853 | C -0.523 | N -0.777 | G -0.89 | Y -0.863 | T -0.73 | Q -0.652 | R -1.02 | H -0.714 | A -0.804 | K -0.77
L13: G -0.752 | T -0.861 | W -0.99 | R -0.803 | H -0.801 | F -0.576 | S -0.887 | N -0.802 | Y -0.905 | D -0.762 | E -0.572 | K -0.715 | I -1.04 | Q -0.447 | M -0.724 | C -0.946 | P -0.71 | V -1 | A -0.788
S8: L -0.818 | W -1.35 | Q -0.55 | C -0.701 | A -0.889 | V -1.02 | T -0.244 | Y -0.899 | N -0.305 | M -1.03 | E -1.17 | G -0.536 | R -0.836 | P -0.758 | H -0.899 | K -0.759 | D -0.316 | F -0.984

— the Human Domainome abundance scans (Beltran et al. 2025)
